Data taken from the nanobody polyreactivity screen of Harvey et al. (2022).

Assay: yeast display, Sf9 membrane polyspecificity reagent, FACS + sequencing; frameworks hold sequencing errors
In short: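 Nanobodies came from a synthetic yeast display library in Saccharomyces cerevisiae BJ5465, induced with galactose for 36–48 hours and stained for 1 hour at 4 °C with 10% biotinylated, detergent-solubilized Sf9 membrane reagent. Cells were enriched on streptavidin microbeads and then FACS-sorted, with low and high (top ~1%) gates set on anti-HA fluorescence for expression and streptavidin fluorescence for reagent binding. Each polyreactivity label reflects the gate a clone came from. Genes were amplified by colony PCR, sequenced by MiSeq 2 × 250 and filtered by CDR length.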

Row | Sequence | polyreactivity (PSR sort gate)
1 | QFQLVESGRGLVQAGGSLRLSCASSGSTQKYAMGWYRQAPRKERELVAAIRRTGGSTYYADSVKGRFKISRDNAKNTVYLQMNSLKPEDTAVYYCAAYIWVAESYDWGQGTQVTVSS | low polyreactivity
2 | QFQLVESRGGLDQAVGSLRLSCAASGFIFAGYVMGLYRQAPGQERELVAGISNSGDNTHYADSVKGRFTISRDNAKNTDYLQMNSLKPEDTAVYYCAAVEQHLAGDDFYSYYYWGQGTQVTLSS | low polyreactivity
3 | QFQLVETGGGLVQAGGSLRLSCAASGITFVRYAMGWYSQAPGKERELVAGISRGGSTNYADSVKGRFTISRDNAKNTVYLQMNSLKPEDTAVYYCNRANSFFDTHTLQFYYWGQGTQVTVSS | high polyreactivity
4 | QGHLVESGGGLVQAGGSRRLSCAASGRIFSPYALGWSRQGPGKERELVAAISSDDGITYYADSVKRRFTISRDNAKNTVYFQMNSLKPEDTAVYYCAADSGTRPAGDYWGQGTQVTVSS | low polyreactivity
5 | QGQHAESGGGLVQAGGSLRLTCAASGFTFVYYPMGWYRQATGKERELVAAISGRGGSTYYADSVKGRFTISRDNAKNTVFLQMNSMKPEDTAVYYCAADAYESGNWEANGYWGQGTQVSVSS | low polyreactivity
6 | QGQHVESGGGLVQAGGSLPLSCAASGFIFNLYAMGWSRQAPGKERELVAAISSGGGTSYADSVKGRFTISRDNAKNTVYLQMNTLKPEDTADYYCAARAWYRVSAYDYWGQGTQVTVSS | high polyreactivity
7 | QGQHVESGGGLVQAGGSLRLSCAASGNILASNGMGWYRQAPGKERELVAAITFSGDTTYYADSVKGRFTISRDNAKNTVYLQMNSLKPEDTAVYYCNDGSFIVNGGYDGDYWGQGTQVTLSS | low polyreactivity
8 | QGQLEESGGGLVQAGGSLRLSCAASGFTFYDNAMGWYRQAPGKERELVAAISWSGGSTYADSVKGRFTISRDNAKNTVYLLMNSLKPEDTAVYYCNADAWLASGYRYDYWGQGTQVTVSA | low polyreactivity
9 | QGQLGESGGGLVQAGGSLRLSCAATGFTSYVYAMGWYRQAPGKERELVAAISLRTASTYYADSVKGRFTISRDNAKNTVYLQMTSLKPEDTAVYDCALGRETYRYAYRLNYWGQGTQVTLSS | high polyreactivity
10 | QGQLVESCGCLVQAGGSLRLSCAASGSTFVVYDMGWYRQAPGKERELVAAITWSGGSTYYADSVKGRFTISRDNAKNTVYLQMNSLKPEDTAVYYCNKVTWHQGHDYWGQGTQVTVSS | low polyreactivity
11 | QGQLVESGGCLVQAGGSLRLSCAASGSIFSENTMGWYRQAPGKKRELVADITSGGSTNYADSVKGRFTSSRDNAKYTVYLQMNSLIPEDTEVYYCAADYNGEYDYWGQGTLVTVSS | low polyreactivity
12 | QGQLVESGGGFVQEGGSLRLSCAASRSIFRLYAMGWYRQAPGKEREFVARLRWRGGSTNYADSVKGRFTISRDNAKKTVYLQMNSLKPEDTAVYYCNARGRSGGGRYDYWGQGTQVTVSS | high polyreactivity
13 | QGQLVESGGGLDQAGGSLRLSCAASGSIFHGNAMGWYRQAPGKERELVAVISDGGYTDYADSVKGRFTISRDNAKNTVYLQMNSLKPEDTAGYYCNADYDTQYFYRNPIYYLSGYDYRGQGTQVTVSS | low polyreactivity
14 | QGQLVESGGGLFQAGASLRLSCAASGITFYDNAMGLYRQAPGKERELVAGISYDGDSTYADSVKGRFTISRDNAKNTVYLQMNSLKPEDTAVYYCAALCPYDWLWAGDYWGQGTQVTVSS | low polyreactivity
15 | QGQLVESGGGLFQAGGSLSLSCASSGRTITHNVMGWYRQAPGKEMELVAGISSTGGSTYYADSVKGRFTISRDNSKNTVYLQMNSLKPEDTAVYYCAKEYYDGYFPSFDYEYWGQGTQVTVSS | low polyreactivity
16 | QGQLVESGGGLVQAGCSLRLSCAASGSTFRRYAMGWDRQAPGKERELVATINWSGGRTYYADSVKGRFTISRDNAKKTGSLQMNRLKPVDTAVYYCAKADYYGYHYYYWGQGTQVTVSS | high polyreactivity
17 | QGQLVESGGGLVQAGGRLRLSCAASGFTFRHNAMGWYRQAPGKETELVAAISWSDGSTYADSVKGRFTISRDNAKNTVYLQMNSLKPEDTAVYYCNADYPSYRYFTGRDYWGQGTQVTVSS | low polyreactivity
18 | QGQLVESGGGLVQAGGRLRLSCAASGSTLWRYAMGWYRQAPRKERELVAGISRGGGSTYYADSVKGRFTISRDNAKNTVYLQMYSLKPEDTGVYYCATPVNQVRGAFDYWGQGTQVSVSS | low polyreactivity
19 | QGQLVESGGGLVQAGGSIRLSCAASGYIFRRYAMGWYRQAPGKEREFVATISRSGGSTYYADSVKGRFTISRDNAKNTVYLQMNSLKPEDTAVYYCNAGYGYGYPKYDYWGQCTQVTVSS | high polyreactivity
20 | QGQLVESGGGLVQAGGSLLLSCAASGRTFYNYYTMGLYRQAPGKERELVAAISRSGSTNYADSVKGRFTISRDTAKNTVYLQMNSLKPEDTAVYYCARSYRSDGSRFGYWGQGTQVTVSS | low polyreactivity
21 | QGQLVESGGGLVQAGGSLRFSCAASGSTFVWYAMGWYRQAPGKERELVAGINRSGGSRYYADSVKGRFTILRDNAKNTVYLQMNSLKPEDTAVYYCAARGKRFRNSRIAYDYWGKGTQVTVSS | high polyreactivity
22 | QGQLVESGGGLVQAGGSLRLSCAAAGFTFGSYAMGWYRHAPGKERELFARISSDGSTNYADSVKGRFTISSDNAKNTVYLQMNSLKPEDTAVYYCNADRQYTCSLVFFSSDYDYWGLGTQVTVSS | low polyreactivity

Row | Sequence | polyreactivity (PSR sort gate)
23 | QGQLVESGGGLVQAGGSLRLSCAASGFIFYKNAMGWYRQAPGKARELVAAITWSGGSTYYADSVKGRFTISRDNAKNTVYLQMNSLKPEDTAVYYCAAGVTWISWVWYDYWGQGTQVTVSS | low polyreactivity
24 | QGQLVESGGGLVQAGGSLRLSCAASGFIYGFYGMGWYRQAPGKEREFVAAIDFIDGDTYYADSVKGRFTISRDNAKNTVYLQMNSLKPEDTAVYYCAAVGSFWQFDYWGQGTQVTVSS | low polyreactivity
25 | QGQLVESGGGLVQAGGSLRLSCAASGFTFAGYARGWYRQAPGKERELVAAINRGGSTYYADSVKGRFTISRDNAKNTVYLQMNSLTPEDTAVYYCAARQEPGWYPDVWWEYDYWGQGTQVTVSS | low polyreactivity
26 | QGQLVESGGGLVQAGGSLRLSCAASGFTFYKNTMGWYRQAPGKERELVAAISSSGSSTYYADSVKGRFTISRDNAKNTVYLQMISLKPEDTAVYYCAACSFAYHDDYWGQGTQVTVSS | high polyreactivity
27 | QGQLVESGGGLVQAGGSLRLSCAASGLTFYYYARGWYRQAPGKERELVATISSRGGSTNYADSVKGRFTISRDNAKNTVYLQMNSLKPEDTAVYYCATDNSGYPRLNYWGQGTHVTVSS | high polyreactivity
28 | QGQLVESGGGLVQAGGSLRLSCAASGRIFVPYGMGWYRQAPGKERELVAAITTGGSTNYADSVKGRFTISRDNAKNTVYLQMNSLKPEDTAVYYCAVDWYPQLIYSFNSELEYWGQGTQVTVSS | low polyreactivity
29 | QGQLVESGGGLVQAGGSLRLSCAASGRISYYYAMGWYRQAPGKERELVAAISRRSTSTYYADSVKGRFTISRDYAKNTVYLQMNSLKPEDTAVYYCAARYIRAFSWRMDYWGQGTQVTVSS | high polyreactivity
30 | QGQLVESGGGLVQAGGSLRLSCAASGRIVRPNAMGWYRQAPGKETEFVAAISSGGSTYYADSVKGRFTISRDNAKNSVYLQMNSLKPEDTAVYYCAADLSNRPYYRQGYDYWGQGTQVTVSS | high polyreactivity
31 | QGQLVESGGGLVQAGGSLRLSCAASGRIVSVYAMGWYRQAPGKEREFVASISWRGGRTYYADSVKGRFTISRDNAKNTVYLQMNSLKPEDTALYYCATGYDYYVRRYYYWGQGTQVSVSS | high polyreactivity
32 | QGQLVESGGGLVQAGGSLRLSCAASGRTFKYYAMGWYRQAPGQERELVAAISYNGGSTFYADSVKGRFTISRDNAKNTVYLQMNSLKPEDTAVYYCAAVYRYRNRRDYDYWGQGTQVTVSS | high polyreactivity
33 | QGQLVESGGGLVQAGGSLRLSCAASGRTFTYYVMGWSRQAPGKERELVAAISWTGGSTNYADSVMGRFTISRDNAKNTVYLQMNSRKPEDTAVYYCNAGGFFGYGRPGYYWGQGTQVTVSS | low polyreactivity
34 | QGQLVESGGGLVQAGGSLRLSCAASGRTFYLNAMGWYRQAPGKERELVAAINRGTRTYYADSVKGRFTISRDNAKNTVFLQMNSLKPDETAVYYCASVPRYYYSSSYTMDYWGQGTQVTVSS | high polyreactivity
35 | QGQLVESGGGLVQAGGSLRLSCAASGRTLYYYAMGWYRQAPGKERELVASIDWDSGITDYADSVTGRFTISRANAKNTVYLQMNILTPEDTAVYYCAAVRVTKKYSYEYWGQGTQVTVSA | low polyreactivity
36 | QGQLVESGGGLVQAGGSLRLSCAASGSIFLTNAMGWYRQAPGKEREFVAAIDWGGTITYYADSVKGRFTISRDNAKNTVYLQMNSLKPEDTAVYYCNRVFPPTDYEFDSWGQGTQGTVSS | low polyreactivity
37 | QGQLVESGGGLVQAGGSLRLSCAASGSIFPGYTMGWYRQAPGKERELVAVISSDGRTHYADSVKGRFTISRDNAKNTVYLQMNSLKPEDSAVYYCAAAKRAYGYVLHAFYYWGQGTQVTVSS | high polyreactivity
38 | QGQLVESGGGLVQAGGSLRLSCAASGSIFPRYVMGWYRQAPGKERELVAAITTSGGRTYYADSVKGRFTISRDNAKKTVYLQMNSQKPVDTAVYYCAARPWGYRYGSEYVGGDYWGQGTQVTVSS | high polyreactivity
39 | QGQLVESGGGLVQAGGSLRLSCAASGSIFSSNAMGWYRQAPGKQRELVAAIDWDSGSTSYADSVKGRFTISRDNAKNTVYLQMISLKPEDTAVFYCAADEVLSGYYTLDYWGQGTQVTVSS | low polyreactivity
40 | QGQLVESGGGLVQAGGSLRLSCAASGSIFSVNTMGWYRQAPGKERELVATIRTGDSTNYADSVKGRFTISRDNAKNTVYLQMNSLKPEDTAVYYCAADWSSLNFDYWGQGTQVTVSS | low polyreactivity
41 | QGQLVESGGGLVQAGGSLRLSCAASGSIFWDNVMGWSRQAPGKERELVADIDSWDGGSTYYADSVKGRFTISRDNAKNTVYLQMHSRKPEDTAVYYCNTDVLWWRGGDDFWGQGTQVTVSS | low polyreactivity
42 | QGQLVESGGGLVQAGGSLRLSCAASGSILLYYAMGWYRQAPGKEWELVAAITGGGGTNYADAGKGRFTISRDNAKNTVYLQMNSLIPEDTAVYYCAADPSGQFPYSYYNYDYDYWGQGTQVTVSS | low polyreactivity
43 | QGQLVESGGGLVQAGGSLRLSCAASGSILRSYAMGWSIQAPRKVRELVATITRSAGRTYYADSVKGRFTISRDNAKNTVYLQMNSLKPEDTALYYCAACYCDTETGYREYDYWGQGTQVNVSS | low polyreactivity
